Experimental findings from patent US20120009162A1 (published 2012) are described below.

In the assay the target is T1, Aurora-A kinase (Aur-A) peptide on HLA-A*02:01 (human).
T1 peptide: YLILEYAPL
The assay is described as follows: multimer staining.

B1: TCR of the Aur-A-specific CTL clone AUR-1 (SEQ ID NOs 1 and 2) (TCR, V domains shown)
Valpha: AQSVAQPEDQVNVAEGNPLTVKCTYSVSGNPYLFWYVQYPNRGLQFLLKYITGDNLVKGSYGFEAEFNKSQTSFHLKKPSALVSDSALYFCAVRDSNSNDYKLSFGAGTTVTVRA
Vbeta: DAGITQSPRHKVTETGTPVTLRCHQTENHRYMYWYRQDPGHGLRLIHYSYGVKDTDKGEVSDGYSVSRSKTEDFLLTLESATSSQTSVYFCAISESSFAQPMNTEAFFGQGTRLTVV
As to B1, the binding result was “recognises”.
